According to patent US10058586B2, “Use of human small leucine zipper protein in adipocyte differentiation procedure” (Korea University Research and Business Foundation, priority 2013, dated 2018):

T1: PPARγ2 (Homo sapiens, UniProt P37231)
T1 sequence (P37231 1-505): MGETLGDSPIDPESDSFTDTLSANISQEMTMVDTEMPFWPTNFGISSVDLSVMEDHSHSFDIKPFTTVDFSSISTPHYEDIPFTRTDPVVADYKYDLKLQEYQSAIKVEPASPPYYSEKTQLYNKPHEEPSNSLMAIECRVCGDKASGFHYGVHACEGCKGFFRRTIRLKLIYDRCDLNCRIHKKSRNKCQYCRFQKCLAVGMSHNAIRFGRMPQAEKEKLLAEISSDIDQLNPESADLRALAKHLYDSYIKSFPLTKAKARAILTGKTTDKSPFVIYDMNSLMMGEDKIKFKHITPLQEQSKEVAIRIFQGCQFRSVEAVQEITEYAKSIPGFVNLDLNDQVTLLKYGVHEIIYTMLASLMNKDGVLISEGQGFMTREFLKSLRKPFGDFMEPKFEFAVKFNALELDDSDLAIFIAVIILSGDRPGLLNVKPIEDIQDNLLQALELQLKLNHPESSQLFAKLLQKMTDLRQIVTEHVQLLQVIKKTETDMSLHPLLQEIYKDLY


Assays:
PPARγ2 = biological target: T1, PPARγ2; test: Luciferase reporter gene analysis (FABP4-Luc) of PPARγ2 transcriptional activity in 293T cells; assay type: cell-based; design: expressed in transfected cells; host or cells: 293T cells; details: 293T cells; for PPARγ2 transcriptional activity (luciferase): sLZIP or deletion mutants 0.1 μg, RZD treated; for transcriptional activity of PPARγ2 (luciferase): sLZIP 0.1 μg
Protocol: C3H10T1/2 and 293T cells were plated in a 12-well culture dish at a density of 2×10^5 cells/well and incubated for 24 hours. Then, according to instructions of the manufacturer, the cells were transfected with a 0.2 μg of reporter genes and 0.1 to 0.5 μg of a laboratory plasmid using Lipofectamine 2000 or Genefectine. After 24 hours, the cells were cultured in a serum-free DMEM with or without 10 nM of rosiglitazone. siRNAs were prepared using sLZIP and HDAC target sequences (Table 1). For an RNA interference experiment, according to instructions of the manufacturer, the cells were transfected with scrambled control group RNA and appropriate siRNAs using Lipofectamine 2000. Human MSC and C3H10T/1/2 cells were infected with an adenovirus vector containing cDNA of human sLZIP or an empty vector. The infected medium was exchanged with a fresh medium after two hours.
Appropriately transfected cells were washed with cold PBS twice, and a reporter lysis buffer (Promega) was used and lysed in a culture dish. Luciferase analysis was performed using a luciferase analysis system (Promega Corporation, Madison, Wis.). A luciferase activity was recorded in Luminometer 20/20^n (Turner BioSystems, Sunnyvale, Calif.) according to instructions of the manufacturer. The luciferase activity was normalized to a β-galactosidase activity. For β-galactosidase analysis, CMV-β-galactosidase was transfected with luciferase reporter genes. All pieces of data were represented as mean±standard deviation of the results from at least three independent experiments.
In order to examine an effect of sLZIP on the transcriptional activity of PPARγ2, 293T cells were temporarily transfected with PPARγ2 (0.5 μg), β-galactosidase (0.1 μg), FABP4-Luc reporter genes (0.2 μg) and sLZIP at different contents (0.1 to 0.5 μg). After the transfection, the cells were stimulated with or without 10 nM of rosiglitazone (RZD) (FIG. 1A), pioglitazone (PZD) (FIG. 1B), and troglitazone (TZD) (FIG. 1C). A relative luciferase activity was analyzed with or without cell ligand treatment 24 hours after transfection. Also, the 293T cells were transiently transfected with si-sLZIP at different contents (50 and 100 nM), and the cells were treated or not treated with RZD (FIG. 1D). FABP4-Luc stable C3H10T1/2 cells were infected with a sLZIP-expressing adenovirus, and then differentiated into adipocytes for 4 days (FIG. 1E). A luciferase activity was normalized to a β-galactosidase activity and represented as a relative activity (fold change). All experiments were repeated three times, and bars in the graph represent mean±standard deviation. *, P<0.05; **, P<0.01
For this purpose, 293T cells were transiently transfected with PPARγ2 (0.5 μg), (3-galactosidase (0.1 μg), FABP4-Luc reporter genes (0.2 μg) and sLZIP (0.1 μg). After the transfection, the cells were stimulated with or without 10 nM of RZD and 10 nM of TSA (FIG. 4A). A promoter activity was measured according to luciferase analysis. In the 293T cells, FABP4-Luc reporter genes, sLZIP, PPAR, β-galactosidase, and 100 nM of si-RNAs and HDAC1, 2, 3 and 8 for a control group were expressed. After the transfection, the cells were stimulated with or without 10 nM of RZD, and a promoter activity was measured (FIG. 4B). 293T cells were temporarily transfected with FABP4-Luc reporter genes, PPARγ2, β-galactosidase, HDAC3 (0.5 μg) and sLZIP (0.1 μg). After the transfection, the cells were stimulated with or without 10 nM of RZD, and luciferase analysis was performed (FIG. 4C). A luciferase activity was normalized to a β-galactosidase activity and represented as a relative intensity (fold change). All experiments were repeated three times, and bars in the graph represent mean±standard deviation. GFP-sLZIP expression constructs were expressed in C3H10T1/2 cells, rabbit anti-HDAC3 antibodies and Texas Red-labeled anti-rabbit antibodies were used and analysis was performed under a fluorescence microscope. The nucleus was stained with DAPI (FIG. 4D). […]

PGC1α = test: GST pull-down of GST-PPARγ2 with anti-PGC1α immunoblot in 293T cells; assay type: binding; details: 10 nM RZD for 24 hours
Protocol: Therefore, in order to understand a regulation mechanism of sLZIP in the PPARγ2 transcriptional activity by binding to the FABP4 promoter region, an effect of sLZIP on the interaction between PPARγ2 and HDAC3 was examined. For this purpose, 293T cells were transfected with GST-HDAC3, Myc-PPARγ2 and Flag-sLZIP, and were treated or not treated with 10 nM of RZD for 24 hours. Cell lysates were subjected to GST pull-down analysis using a glutathione 4B bead, and a protein complex was analyzed in SDS-PAGE, and then immunoblotted with anti-GST, anti-Myc and anti-Flag antibodies (FIG. 6A). GST-HDAC3, GST-PPARγ2, Myc-PPARγ2, Flag-sLZIP and Ha-UB were expressed in the 293T cells, and the cells were treated with 10 nM of RZD for 24 hours. Cell lysates were subjected to GST pull-down analysis (FIG. 6B). GST-PPARγ2 and Flag-sLZIP were expressed in the 293T cells and treated with 10 nM of RZD for 24 hours. Cell lysates were subjected to GST pull-down analysis, and a protein complex was analyzed in SDS-PAGE, and then immunoblotted with anti-PGC1α, anti-GST and anti-Flag antibodies (FIG. 6C).

[1] = test system: multipotential mesenchymal progenitor cells; test: Oil red O staining, differentiation of multipotential mesenchymal progenitor cells into adipocytes; assay type: cell-based; details: C3H10T1/2 and 3T3-L1 cells

Molecule | PPARγ2 transcriptional activity (luciferase) (PPARγ2) | transcriptional activity of PPARγ2 (luciferase) (PPARγ2; cells treated with 10 nM TSA (HDAC inhibitor)) | transcriptional activity of PPARγ2 (luciferase) (PPARγ2; no TSA) | transcriptional activity of PPARγ2 (relative luciferase activity) (PPARγ2; sLZIP 0.1 to 0.5 μg, with or without 10 nM RZD, PZD or TZD) | sLZIP-mediated PPARγ2 transcriptional activity (luciferase) (PPARγ2; transfection of both sLZIP (0.1 μg) and HDAC3 (0.5 μg)) | recruitment of coactivator PGC-1α to PPARγ2 (PGC1α) | adipocyte differentiation (oil red O staining) [1]
N domains of sLZIP: N-terminal deletion mutant of sLZIP, residues 1-228 (protein, left off: a dimerising Fc or GST) MELELDAGDQDLLAFLLEESGDLGTAPDEAVRAPLDWALPLSEVPSDWEVDDLLCSLLSPPASLNILSSSNPCLVHHDHTYSLPRETVSMDLESESCRKEGTQMTPQHMEELAEQEIARLVLTDEEKSLLEKEGLILPETLPLTKTEEQILKRVRRKIRNKRSAQESRRKKKVYVGGLESRVLKYTAQNMELQNKVQLLEEQNLSLLDQLRKLQAMVIEISNKTSSSS | The transcriptional activity of PPARγ2 was inhibited | – | – | – | – | – | –
sLZIP: human small leucine-zipper protein, isoform of LZIP, 354 amino acids, no transmembrane domain; GenBank FJ263669, SEQ ID NO: 1 (protein, listed as Homo sapiens) MELELDAGDQDLLAFLLEESGDLGTAPDEAVRAPLDWALPLSEVPSDWEVDDLLCSLLSPPASLNILSSSNPCLVHHDHTYSLPRETVSMDLESESCRKEGTQMTPQHMEELAEQEIARLVLTDEEKSLLEKEGLILPETLPLTKTEEQILKRVRRKIRNKRSAQESRRKKKVYVGGLESRVLKYTAQNMELQNKVQLLEEQNLSLLDQLRKLQAMVIEISNKTSSSSMYSSDTRGSLPAEHGVLSRQLRALPSEDPYQLELPALQSEVPKDSTHQWLDGSDCVLQAPGNTSCLLHYMPQAPSAEPPLEWPFPDLFSEPLCRGPILPLQANLTRKGGWLPTGSPSVILQDRYSG | still inhibited the PPARγ2 transcriptional activity | did not decrease the transcriptional activity of PPARγ2 | inhibits the transcriptional activity of PPARγ2 | inhibits the transcriptional activity of PPARγ2 in a concentration-dependent manner | significantly down-regulated | inhibited the complementing of a coactivator PGC-la for PPARγ2 | inhibited adipocyte differentiation
